This note sets out measurements from US6492137B1, “Response element compositions and assays employing same” (The Salk Institute for Biological Studies, priority 1989, dated 2002).

Data set [1] addresses T1, Vitamin D receptor (VDR), in CV-1 cells (Homo sapiens, UniProt P11473 P11473:1-427).
T1 sequence: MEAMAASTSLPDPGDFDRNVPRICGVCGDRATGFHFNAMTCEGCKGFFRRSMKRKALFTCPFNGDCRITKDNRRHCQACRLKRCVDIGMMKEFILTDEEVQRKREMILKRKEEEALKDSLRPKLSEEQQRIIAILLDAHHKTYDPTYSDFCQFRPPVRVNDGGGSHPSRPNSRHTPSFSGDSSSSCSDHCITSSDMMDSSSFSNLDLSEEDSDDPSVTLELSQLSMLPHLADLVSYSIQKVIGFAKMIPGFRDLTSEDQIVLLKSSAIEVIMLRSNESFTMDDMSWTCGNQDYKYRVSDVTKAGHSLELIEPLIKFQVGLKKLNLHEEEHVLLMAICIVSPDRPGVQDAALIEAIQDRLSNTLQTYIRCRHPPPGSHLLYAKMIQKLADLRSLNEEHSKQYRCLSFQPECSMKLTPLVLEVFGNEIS
The experiment in a line: cell_activity; vitamin D3 100 nM, CV-1. The following applies: tags: pRShVDR; label: 32P; 5'-agct overhangs. The method, then:
(§1) For cotransfection assays, a monkey kidney cell line CV-1 was kept in Dulbecco's modified Eagle's medium (DMEM) supplemented with 10% charcoal-resin double split calf bovine serum. Transfections were performed via calcium-phosphate precipitation method as described by Umesono, et al. in Cell 57: 1139–1146 (1989), with 0.5 μg of a pRS receptor expression plasmid, 1.0 μg of a reporter CAT plasmid, 5 μg of pRAS-βGAL [Umesono, et al., Cell 57: 1139–1146 (1989)] as an internal control, and 8.5 μg of carrier plasmid pUC19. The cells were transfected for 8 hours; after washing the DNA precipitates, the cells were then incubated for an additional 36 hours with or without the ligand (T_3, 100 nM; RA, 1 μM; 1,25-(OH)_2 vitamin D_3, 100 nM). Cell extracts were prepared for βGAL and CAT assays, as described by Umesono, et al., supra. Transfection of F9 teratocarcinoma cells was carried out employing a similar method except the cells were incubated for 12 hours in the presence of the DNA precipitates, and the RA was added at 1 μM for another 24 hours before harvesting the cells. 2, 5, and 4 μg of the reporter, pRAS-βGAL, and pUC19 were used, respectively.
(§2) The above strategies were used to test both in vivo transactivation and in vitro DNA-binding of these artificial HREs for TRβ, RARα, and VDR. […]

Data set [2] deals with T2, Retinoic acid receptor alpha (RARα), in CV-1 cells (Homo sapiens, UniProt P10276 P10276:1-462).
T2 sequence: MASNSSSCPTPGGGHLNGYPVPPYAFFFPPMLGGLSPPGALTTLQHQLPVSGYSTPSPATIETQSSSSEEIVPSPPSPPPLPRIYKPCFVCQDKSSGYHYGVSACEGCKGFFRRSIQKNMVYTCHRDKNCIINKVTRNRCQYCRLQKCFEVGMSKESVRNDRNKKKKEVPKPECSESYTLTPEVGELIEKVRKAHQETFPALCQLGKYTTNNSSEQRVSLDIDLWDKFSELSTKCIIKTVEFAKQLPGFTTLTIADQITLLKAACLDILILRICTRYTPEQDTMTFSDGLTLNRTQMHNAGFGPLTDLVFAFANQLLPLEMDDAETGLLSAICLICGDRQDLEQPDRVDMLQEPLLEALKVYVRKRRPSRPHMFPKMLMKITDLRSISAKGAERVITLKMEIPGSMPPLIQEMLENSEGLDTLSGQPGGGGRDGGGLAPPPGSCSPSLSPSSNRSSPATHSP
The experiment in a line: cell_activity; RA 1 µM, CV-1. Conditions: tags: RSV or pRS expression vector; label: 32P; 5'-agct overhangs. The method, then: as §1, §2

In data set [3] the target is T3, Thyroid hormone receptor beta (TRβ), in CV-1 cells (Homo sapiens, UniProt P10828 P10828:1-461).
T3 sequence: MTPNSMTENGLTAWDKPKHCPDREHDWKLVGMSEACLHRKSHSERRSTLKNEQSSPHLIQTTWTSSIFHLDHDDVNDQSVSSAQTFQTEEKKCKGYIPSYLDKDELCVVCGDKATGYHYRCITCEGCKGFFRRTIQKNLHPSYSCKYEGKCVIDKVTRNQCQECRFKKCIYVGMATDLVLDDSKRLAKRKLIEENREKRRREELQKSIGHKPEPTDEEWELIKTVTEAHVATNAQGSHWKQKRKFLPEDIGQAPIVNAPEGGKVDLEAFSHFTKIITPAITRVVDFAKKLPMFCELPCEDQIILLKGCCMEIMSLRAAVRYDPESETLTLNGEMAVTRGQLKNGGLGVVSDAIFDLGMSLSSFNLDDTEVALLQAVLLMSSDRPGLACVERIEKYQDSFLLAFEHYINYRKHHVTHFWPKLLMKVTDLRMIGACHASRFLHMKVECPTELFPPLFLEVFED
The experiment in a line: cell_activity; T3 100 nM, CV-1. Conditions: tags: pRShTRβ; label: 32P; 5'-agct overhangs. The method, then:
as §1, §2

B1: DR-3 (dsDNA)
DNA 1: AGCTTCAGGTCAAGGAGGTCAGAGAGCT
DNA 2: AGCTCTCTGACCTCCTTGACCTGAAGCT
For the molecule B1, in data set [1], the activity amounted to 8.3 fold induction.

B2: DR-5 (dsDNA)
DNA 1: AGCTTCAGGTCACCAGGAGGTCAGAGAGCT
DNA 2: AGCTCTCTGACCTCCTGGTGACCTGAAGCT
The molecule B2 came in with an activity in data set [2] of 9 fold induction.

B3: DR-4 (dsDNA)
DNA 1: AGCTTCAGGTCACAGGAGGTCAGAGAGCT
DNA 2: AGCTCTCTGACCTCCTGTGACCTGAAGCT
Consider B3, for which the activity in data set [3] is 22 fold induction.
